Assay results published in paper PMC9366199, “Bivalent binding of p14ARF to MDM2 RING and acidic domains inhibits E3 ligase function” (Life Science Alliance, 2022).

Molecular target: T1, UBE2D2^(S22R C85K)–Ub (UniProt P62837 2-147; P0CG48 1-76, S22R | C85K)
T1 construct: UBE2D2 with S22R and C85K, conjugated to ubiquitin; ubiquitin (Ub), conjugated to UBE2D2; also called UBE2D2–Ub; UBE2D2–Ub conjugate; source: purified as described previously (Buetow et al, 2015)
Experiment: SPR; Biacore T200, 25°C; GST-MDM2 variants captured on anti-GST nanobodies on CM-5 chips (about 500 RU), GST as control; UBE2D2–Ub as analyte, seven twofold dilutions from 100 μM; 25 mM Tris-HCl pH 7.6, 300 mM NaCl, 0.5 mM TCEP, 0.005% Tween-20; steady-state affinity
Conditions: both partners purified

B1: GST-tagged MDM2^419-C containing the RING domain (domain or fragment, UniProt Q00987 419-491, looked up)
chain: TQDKEESVESSLPLNAIEPCVICQGRPKNGCIVHGKTGHLMACFTCAKKLKKRNKPCPVCRQPIQMIVLTYFP
notes: MDM2, residues 419 to the C-terminus (RING domain); TEV site between GST and MDM2 (modified pGEX-4T-1); the oligomeric state of the GST fusion was not measured here; also called GST-MDM2^RING; MDM2^RING; source: E. coli BL21-DE3; co-expressed with His-GFP-MDM2^220-334, in lysate (pull-down); not shown: GST, N-terminal, kept
  Kd: 14.5 ± 1.4 µM
